Here are results for four molecules from PMC8809517, “Cofactor-independent RNA editing by a synthetic S-type PPR protein”.

What all share (assay): high-throughput RNA pulldown from lysate on Ni-NTA beads; HRP: 50 mM Tris pH 8, 150 mM NaCl, 1 mM beta-mercaptoethanol, 50 ug/ml BSA, 3 ug/ml yeast RNA, 0.5% heparin; ITC and FP: Tris pH 8, 200 mM KCl, 5% glycerol; MST: 50 mM Tris pH 8, 200 mM NaCl, 1 mM DTT, BSA, heparin, 0.05% Tween 20
Holding throughout (conditions): tags: N-terminal His-eGFP

Data set [1] deals with T1, GFP-9S library array, motif 4 ND N98W;D124F (synthetic construct, N98W;D124F).
T1 chain: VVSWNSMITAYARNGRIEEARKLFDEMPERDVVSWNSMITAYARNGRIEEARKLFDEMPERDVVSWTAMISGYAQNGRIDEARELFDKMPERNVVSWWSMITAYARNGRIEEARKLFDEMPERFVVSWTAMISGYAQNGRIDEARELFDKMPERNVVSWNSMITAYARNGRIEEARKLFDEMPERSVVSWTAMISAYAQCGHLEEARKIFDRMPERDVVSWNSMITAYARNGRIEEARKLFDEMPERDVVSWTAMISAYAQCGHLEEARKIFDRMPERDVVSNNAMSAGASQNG

For data set [2], the target named is T2, GFP-9S library array, motif 4 ND N98W;D124S (synthetic construct, N98W;D124S).
T2 chain: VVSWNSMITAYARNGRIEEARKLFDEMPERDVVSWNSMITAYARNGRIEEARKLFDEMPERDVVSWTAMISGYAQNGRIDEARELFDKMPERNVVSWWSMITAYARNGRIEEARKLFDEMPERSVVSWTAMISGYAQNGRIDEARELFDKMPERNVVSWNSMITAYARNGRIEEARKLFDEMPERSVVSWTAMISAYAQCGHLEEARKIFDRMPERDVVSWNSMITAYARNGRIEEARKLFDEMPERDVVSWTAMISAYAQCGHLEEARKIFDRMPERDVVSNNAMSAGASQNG

Data set [3] concerns the target T3, GFP-9S library array, motif 4 ND N98P;D124G (synthetic construct, N98P;D124G).
T3 chain: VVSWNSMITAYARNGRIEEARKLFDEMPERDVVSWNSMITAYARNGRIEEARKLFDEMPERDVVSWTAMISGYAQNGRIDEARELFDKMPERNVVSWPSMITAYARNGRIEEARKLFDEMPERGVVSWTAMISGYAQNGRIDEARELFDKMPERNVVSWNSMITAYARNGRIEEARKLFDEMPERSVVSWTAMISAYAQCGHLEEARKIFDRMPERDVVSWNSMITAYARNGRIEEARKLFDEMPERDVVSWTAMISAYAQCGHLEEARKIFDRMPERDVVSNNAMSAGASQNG

Data set [4] addresses T4, GFP-9S library array, motif 4 ND N98T;D124T (synthetic construct, N98T;D124T).
T4 chain: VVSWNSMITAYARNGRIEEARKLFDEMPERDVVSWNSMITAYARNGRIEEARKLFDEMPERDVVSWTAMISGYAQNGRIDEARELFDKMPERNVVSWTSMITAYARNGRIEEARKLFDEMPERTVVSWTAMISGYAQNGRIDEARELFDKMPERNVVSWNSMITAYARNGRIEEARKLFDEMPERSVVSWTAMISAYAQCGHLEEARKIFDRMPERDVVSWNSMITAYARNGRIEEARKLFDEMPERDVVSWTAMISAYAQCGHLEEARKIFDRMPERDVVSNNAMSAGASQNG

In data set [5] the target is T5, GFP-9S library array, motif 4 ND N98T;D124P (synthetic construct, N98T;D124P).
T5 chain: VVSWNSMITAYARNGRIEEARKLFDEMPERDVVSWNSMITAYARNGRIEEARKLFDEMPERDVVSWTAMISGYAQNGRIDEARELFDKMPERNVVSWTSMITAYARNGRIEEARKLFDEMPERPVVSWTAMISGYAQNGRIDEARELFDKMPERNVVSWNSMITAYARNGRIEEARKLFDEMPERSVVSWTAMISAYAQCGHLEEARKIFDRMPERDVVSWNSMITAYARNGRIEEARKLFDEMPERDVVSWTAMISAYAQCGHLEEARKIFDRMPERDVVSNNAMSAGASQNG

B1: Cy5-rpoA-G (ssRNA)
RNA: AUUAGACGUGA
Consider B1, for which the Kd came out at 80.4 nM in data set [1] (label: 5' Cy5); 79.8 nM in data set [2] (label: 5' Cy5); 262 nM in data set [3] (label: 5' Cy5); 81.4 nM in data set [4] (label: 5' Cy5); 90.3 nM in data set [5] (label: 5' Cy5).

B2: Cy5-rpoA (ssRNA)
RNA: AUUACACGUGA
With B2, the dissociation constant Kd in data set [1] (label: 5' Cy5) came to 95.8 nM; in data set [2] (label: 5' Cy5), 89.2 nM; in data set [3] (label: 5' Cy5), 345 nM; in data set [4] (label: 5' Cy5), 83.1 nM; in data set [5] (label: 5' Cy5), 92.4 nM.

B3: IR-rpoA-A (ssRNA)
RNA: AUUAAACGUGA
In the case of B3, the Kd is 274 nM in data set [1] (label: 5' IRDye 800CW); 247 nM in data set [2] (label: 5' IRDye 800CW); 735 nM in data set [3] (label: 5' IRDye 800CW); 18.3 nM in data set [4] (label: 5' IRDye 800CW); 107 nM in data set [5] (label: 5' IRDye 800CW).

B4: IR-rpoA-U (ssRNA)
RNA: AUUAUACGUGA
Consider B4, for which the Kd in data set [1] (label: 5' IRDye 800CW) came to 273 nM; in data set [2] (label: 5' IRDye 800CW) it was 263 nM; in data set [3] (label: 5' IRDye 800CW), 778 nM; in data set [4] (label: 5' IRDye 800CW), 63.1 nM; in data set [5] (label: 5' IRDye 800CW), 113 nM.

The term Kd denotes the constant that tells how readily two partners part at equilibrium. A higher Kd goes with a looser complex.
